# Measurements from patent publication EP4745153A1, “GLP-1, GIP AND GCG RECEPTOR […] USE THEREOF” (Jiangsu Hengrui Pharmaceuticals Co., Ltd., priority 2023, dated 2025).
# Starred links: 1 amine or outer side, 2 acyl side, 3 side chain; linkers in the order of their positions; H or OH if unused. Non-standard residues stand in square brackets, D forms with d. Groups on a side chain read outwards from the residue. No end group written: not given here. *: point of attachment. C20 diacid = O=C(O)CCCCCCCCCCCCCCCCCCC(=O)*; γGlu = O=C(O)[C@H](CCC(=O)[*:2])N[*:1]; αMeL = CC(C)C[C@](C)(N)C(=O)O; AEEA = NCCOCCOCC(=O)O; Aib = CC(C)(N)C(=O)O
# B1: Compound No. 0153 (peptide)
# peptide: H[Aib]HGTFTSDYSILLEK([AEEA-AEEA-γGlu-C20 diacid])QAAQEFVEWLLA[dE]GPSSGAPPPS-NH2
# modifications: N-terminus assumed
# SMILES: CC[C@H](C)[C@H](NC(=O)[C@H](CO)NC(=O)[C@H](Cc1ccc(O)cc1)NC(=O)[C@H](CC(=O)O)NC(=O)[C@H](CO)NC(=O)[C@@H](NC(=O)[C@H](Cc1ccccc1)NC(=O)[C@@H](NC(=O)CNC(=O)[C@H](Cc1c[nH]cn1)NC(=O)C(C)(C)NC(=O)[C@@H](N)Cc1c[nH]cn1)[C@@H](C)O)[C@@H](C)O)C(=O)N[C@@H](CC(C)C)C(=O)N[C@@H](CC(C)C)C(=O)N[C@@H](CCC(=O)O)C(=O)N[C@@H](CCCCNC(=O)COCCOCCNC(=O)COCCOCCNC(=O)CC[C@H](NC(=O)CCCCCCCCCCCCCCCCCCC(=O)O)C(=O)O)C(=O)N[C@@H](CCC(N)=O)C(=O)N[C@@H](C)C(=O)N[C@@H](C)C(=O)N[C@@H](CCC(N)=O)C(=O)N[C@@H](CCC(=O)O)C(=O)N[C@@H](Cc1ccccc1)C(=O)N[C@H](C(=O)N[C@@H](CCC(=O)O)C(=O)N[C@@H](Cc1c[nH]c2ccccc12)C(=O)N[C@@H](CC(C)C)C(=O)N[C@@H](CC(C)C)C(=O)N[C@@H](C)C(=O)N[C@H](CCC(=O)O)C(=O)NCC(=O)N1CCC[C@H]1C(=O)N[C@@H](CO)C(=O)N[C@@H](CO)C(=O)NCC(=O)N[C@@H](C)C(=O)N1CCC[C@H]1C(=O)N1CCC[C@H]1C(=O)N1CCC[C@H]1C(=O)N[C@@H](CO)C(N)=O)C(C)C
# B2: Compound No. 0152 (peptide)
# peptide: H[Aib]HGTFTSDYSILLEK([AEEA-AEEA-γGlu-C20 diacid])QAAQEFVEWLLAGGPSSGAPPPS-NH2
# modifications: N-terminus assumed
# SMILES: CC[C@H](C)[C@H](NC(=O)[C@H](CO)NC(=O)[C@H](Cc1ccc(O)cc1)NC(=O)[C@H](CC(=O)O)NC(=O)[C@H](CO)NC(=O)[C@@H](NC(=O)[C@H](Cc1ccccc1)NC(=O)[C@@H](NC(=O)CNC(=O)[C@H](Cc1c[nH]cn1)NC(=O)C(C)(C)NC(=O)[C@@H](N)Cc1c[nH]cn1)[C@@H](C)O)[C@@H](C)O)C(=O)N[C@@H](CC(C)C)C(=O)N[C@@H](CC(C)C)C(=O)N[C@@H](CCC(=O)O)C(=O)N[C@@H](CCCCNC(=O)COCCOCCNC(=O)COCCOCCNC(=O)CC[C@H](NC(=O)CCCCCCCCCCCCCCCCCCC(=O)O)C(=O)O)C(=O)N[C@@H](CCC(N)=O)C(=O)N[C@@H](C)C(=O)N[C@@H](C)C(=O)N[C@@H](CCC(N)=O)C(=O)N[C@@H](CCC(=O)O)C(=O)N[C@@H](Cc1ccccc1)C(=O)N[C@H](C(=O)N[C@@H](CCC(=O)O)C(=O)N[C@@H](Cc1c[nH]c2ccccc12)C(=O)N[C@@H](CC(C)C)C(=O)N[C@@H](CC(C)C)C(=O)N[C@@H](C)C(=O)NCC(=O)NCC(=O)N1CCC[C@H]1C(=O)N[C@@H](CO)C(=O)N[C@@H](CO)C(=O)NCC(=O)N[C@@H](C)C(=O)N1CCC[C@H]1C(=O)N1CCC[C@H]1C(=O)N1CCC[C@H]1C(=O)N[C@@H](CO)C(N)=O)C(C)C
# B3: Compound No. 0139 (peptide)
# peptide: H[Aib]HGTFTSDYSI[αMeL]LEK([AEEA-AEEA-γGlu-C20 diacid])KAAQEFVEWLLA[dE]GPSSGAPPPS-NH2
# modifications: N-terminus assumed
# SMILES: CC[C@H](C)[C@H](NC(=O)[C@H](CO)NC(=O)[C@H](Cc1ccc(O)cc1)NC(=O)[C@H](CC(=O)O)NC(=O)[C@H](CO)NC(=O)[C@@H](NC(=O)[C@H](Cc1ccccc1)NC(=O)[C@@H](NC(=O)CNC(=O)[C@H](Cc1c[nH]cn1)NC(=O)C(C)(C)NC(=O)[C@@H](N)Cc1c[nH]cn1)[C@@H](C)O)[C@@H](C)O)C(=O)N[C@@](C)(CC(C)C)C(=O)N[C@@H](CC(C)C)C(=O)N[C@@H](CCC(=O)O)C(=O)N[C@@H](CCCCNC(=O)COCCOCCNC(=O)COCCOCCNC(=O)CC[C@H](NC(=O)CCCCCCCCCCCCCCCCCCC(=O)O)C(=O)O)C(=O)N[C@@H](CCCCN)C(=O)N[C@@H](C)C(=O)N[C@@H](C)C(=O)N[C@@H](CCC(N)=O)C(=O)N[C@@H](CCC(=O)O)C(=O)N[C@@H](Cc1ccccc1)C(=O)N[C@H](C(=O)N[C@@H](CCC(=O)O)C(=O)N[C@@H](Cc1c[nH]c2ccccc12)C(=O)N[C@@H](CC(C)C)C(=O)N[C@@H](CC(C)C)C(=O)N[C@@H](C)C(=O)N[C@H](CCC(=O)O)C(=O)NCC(=O)N1CCC[C@H]1C(=O)N[C@@H](CO)C(=O)N[C@@H](CO)C(=O)NCC(=O)N[C@@H](C)C(=O)N1CCC[C@H]1C(=O)N1CCC[C@H]1C(=O)N1CCC[C@H]1C(=O)N[C@@H](CO)C(N)=O)C(C)C
# B4: Compound No. 0143 (peptide)
# peptide: H[Aib]HGTFTSDLSI[αMeL]LEK([AEEA-AEEA-γGlu-C20 diacid])KAAQEFVEWLLAGGPSSGAPPPS-NH2
# modifications: N-terminus assumed
# SMILES: CC[C@H](C)[C@H](NC(=O)[C@H](CO)NC(=O)[C@H](CC(C)C)NC(=O)[C@H](CC(=O)O)NC(=O)[C@H](CO)NC(=O)[C@@H](NC(=O)[C@H](Cc1ccccc1)NC(=O)[C@@H](NC(=O)CNC(=O)[C@H](Cc1c[nH]cn1)NC(=O)C(C)(C)NC(=O)[C@@H](N)Cc1c[nH]cn1)[C@@H](C)O)[C@@H](C)O)C(=O)N[C@@](C)(CC(C)C)C(=O)N[C@@H](CC(C)C)C(=O)N[C@@H](CCC(=O)O)C(=O)N[C@@H](CCCCNC(=O)COCCOCCNC(=O)COCCOCCNC(=O)CC[C@H](NC(=O)CCCCCCCCCCCCCCCCCCC(=O)O)C(=O)O)C(=O)N[C@@H](CCCCN)C(=O)N[C@@H](C)C(=O)N[C@@H](C)C(=O)N[C@@H](CCC(N)=O)C(=O)N[C@@H](CCC(=O)O)C(=O)N[C@@H](Cc1ccccc1)C(=O)N[C@H](C(=O)N[C@@H](CCC(=O)O)C(=O)N[C@@H](Cc1c[nH]c2ccccc12)C(=O)N[C@@H](CC(C)C)C(=O)N[C@@H](CC(C)C)C(=O)N[C@@H](C)C(=O)NCC(=O)NCC(=O)N1CCC[C@H]1C(=O)N[C@@H](CO)C(=O)N[C@@H](CO)C(=O)NCC(=O)N[C@@H](C)C(=O)N1CCC[C@H]1C(=O)N1CCC[C@H]1C(=O)N1CCC[C@H]1C(=O)N[C@@H](CO)C(N)=O)C(C)C
# B5: Compound No. 0144 (peptide)
# peptide: H[Aib]HGTFTSDLSILLEK([AEEA-AEEA-γGlu-C20 diacid])KAAQEFVEWLLA[dE]GPSSGAPPPS-NH2
# B6: Compound No. 0142 (peptide)
# peptide: H[Aib]HGTFTSDLSI[αMeL]LEK([AEEA-AEEA-γGlu-C20 diacid])KAAQEFVEWLLA[dE]GPSSGAPPPS-NH2
# modifications: N-terminus assumed
# SMILES: CC[C@H](C)[C@H](NC(=O)[C@H](CO)NC(=O)[C@H](CC(C)C)NC(=O)[C@H](CC(=O)O)NC(=O)[C@H](CO)NC(=O)[C@@H](NC(=O)[C@H](Cc1ccccc1)NC(=O)[C@@H](NC(=O)CNC(=O)[C@H](Cc1c[nH]cn1)NC(=O)C(C)(C)NC(=O)[C@@H](N)Cc1c[nH]cn1)[C@@H](C)O)[C@@H](C)O)C(=O)N[C@@](C)(CC(C)C)C(=O)N[C@@H](CC(C)C)C(=O)N[C@@H](CCC(=O)O)C(=O)N[C@@H](CCCCNC(=O)COCCOCCNC(=O)COCCOCCNC(=O)CC[C@H](NC(=O)CCCCCCCCCCCCCCCCCCC(=O)O)C(=O)O)C(=O)N[C@@H](CCCCN)C(=O)N[C@@H](C)C(=O)N[C@@H](C)C(=O)N[C@@H](CCC(N)=O)C(=O)N[C@@H](CCC(=O)O)C(=O)N[C@@H](Cc1ccccc1)C(=O)N[C@H](C(=O)N[C@@H](CCC(=O)O)C(=O)N[C@@H](Cc1c[nH]c2ccccc12)C(=O)N[C@@H](CC(C)C)C(=O)N[C@@H](CC(C)C)C(=O)N[C@@H](C)C(=O)N[C@H](CCC(=O)O)C(=O)NCC(=O)N1CCC[C@H]1C(=O)N[C@@H](CO)C(=O)N[C@@H](CO)C(=O)NCC(=O)N[C@@H](C)C(=O)N1CCC[C@H]1C(=O)N1CCC[C@H]1C(=O)N1CCC[C@H]1C(=O)N[C@@H](CO)C(N)=O)C(C)C
# Target: T1, human glucagon-like peptide-1 receptor (human, UniProt P43220 24-463)
# Test: cell-based or functional assay
row,Binder,Activity against human GLP-1R (EC50 nM) [nM]
1,B1,0.051
2,B2,0.054

# Target: T2, human glucose-dependent insulinotropic polypeptide receptor (human, UniProt P48546 22-466)
# T2 sequence (looked up): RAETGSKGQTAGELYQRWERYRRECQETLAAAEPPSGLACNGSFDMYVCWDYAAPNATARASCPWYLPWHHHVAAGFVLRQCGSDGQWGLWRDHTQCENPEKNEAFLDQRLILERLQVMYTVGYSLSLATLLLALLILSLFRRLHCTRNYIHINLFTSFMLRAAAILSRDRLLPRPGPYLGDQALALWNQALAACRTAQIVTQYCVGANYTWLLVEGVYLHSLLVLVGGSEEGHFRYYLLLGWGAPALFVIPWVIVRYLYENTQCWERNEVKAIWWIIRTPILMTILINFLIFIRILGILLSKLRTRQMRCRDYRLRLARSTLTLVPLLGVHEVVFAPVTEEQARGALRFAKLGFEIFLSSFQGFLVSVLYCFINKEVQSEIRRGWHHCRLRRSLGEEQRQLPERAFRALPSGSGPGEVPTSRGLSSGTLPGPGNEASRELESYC
# Test: cell-based or functional assay
row,Binder,Activity against human GIPR (EC50 nM) [nM]
1,B1,0.01
2,B2,0.009

# Target: T3, human glucagon receptor (human, UniProt P47871 26-477)
# T3 sequence (P47871 26-477): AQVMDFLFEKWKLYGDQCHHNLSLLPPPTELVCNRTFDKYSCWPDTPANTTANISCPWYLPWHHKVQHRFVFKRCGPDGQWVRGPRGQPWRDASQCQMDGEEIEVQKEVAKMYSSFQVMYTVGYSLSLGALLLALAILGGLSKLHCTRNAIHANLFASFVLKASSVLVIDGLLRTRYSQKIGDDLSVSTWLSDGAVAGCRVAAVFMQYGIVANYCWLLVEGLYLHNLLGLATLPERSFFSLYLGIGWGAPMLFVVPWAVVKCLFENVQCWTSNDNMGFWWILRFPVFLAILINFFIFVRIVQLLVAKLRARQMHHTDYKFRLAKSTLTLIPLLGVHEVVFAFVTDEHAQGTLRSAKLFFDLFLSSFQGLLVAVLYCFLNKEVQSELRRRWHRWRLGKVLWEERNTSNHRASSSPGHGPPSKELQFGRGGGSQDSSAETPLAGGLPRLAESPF
# Test: cell-based or functional assay
row,Binder,Activity against human GCGR (EC50 nM) [nM]
1,B1,0.334
2,B2,0.29

# Target: T1, human glucagon-like peptide-1 receptor
# Test: cell-based or functional assay
# Remark: another data set of the same source
row,Binder,Activity against human GLP-1R (EC50 nM) [nM]
1,B3,0.043
2,B4,0.09
3,B5,0.035
4,B6,0.058

# Target: T2, human glucose-dependent insulinotropic …
# Test: cell-based or functional assay
# Remark: another data set of the same source
row,Binder,Activity against human GIPR (EC50 nM) [nM]
1,B3,0.007
2,B4,0.004
3,B5,0.012
4,B6,0.007

# Target: T3, human glucagon receptor
# Test: cell-based or functional assay
# Remark: another data set of the same source
row,Binder,Activity against human GCGR (EC50 nM) [nM]
1,B3,0.43
2,B4,0.423
3,B5,0.311
4,B6,0.49
